Patent US6808893 (Johns Hopkins, dated 2004)

T1: EAAT4, full-length glutamate transporter (rat, UniProt O35921 1-561)
T1 sequence (looked up): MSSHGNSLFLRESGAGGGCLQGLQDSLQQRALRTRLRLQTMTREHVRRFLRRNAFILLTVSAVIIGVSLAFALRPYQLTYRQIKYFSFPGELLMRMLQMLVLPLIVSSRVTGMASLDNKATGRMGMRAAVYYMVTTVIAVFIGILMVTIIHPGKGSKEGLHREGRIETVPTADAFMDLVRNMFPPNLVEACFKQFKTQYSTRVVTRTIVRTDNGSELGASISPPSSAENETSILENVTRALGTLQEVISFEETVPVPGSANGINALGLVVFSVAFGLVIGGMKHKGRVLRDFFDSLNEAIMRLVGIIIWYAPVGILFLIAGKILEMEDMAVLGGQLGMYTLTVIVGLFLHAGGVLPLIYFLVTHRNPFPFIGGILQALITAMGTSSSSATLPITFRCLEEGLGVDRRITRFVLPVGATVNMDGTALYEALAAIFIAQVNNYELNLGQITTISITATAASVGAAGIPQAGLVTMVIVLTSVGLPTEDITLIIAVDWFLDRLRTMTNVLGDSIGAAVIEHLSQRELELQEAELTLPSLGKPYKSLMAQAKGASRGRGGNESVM

B1: GTRAP4-48 (glutamate transporter 4 associated protein), full-length (other)
chain: MSIRLPHSIDRSASKKQSHLSSPIASWLSSLSSLGDSTPERTSPSHHRQPSDTSETTAGLVQRCVIIQKDQHGFGFTVSGDRIVLVQSVRPGGAAMKAGVKEGDRIIKVNGTMVTNSSHLEVVKLIKSGAYAALTLLGSSPPSVGVSGLQQNPSVAGVLRVNPIIPPPPPPPPLPPPQHITGPKPLQDPEVQKHATQILWNMLRQEEEELQDILPPCGETSQRTCEGRLSVDSQEADSGLDSGTERFPSISESLMNRNSVLSDPGLDSPQTSPVILARVAQHHRRQGSDAALLPLNHQGIDQSPKPLIIGPEEDYDPGYFNNESDIIFQDLEKLKSHPAYLVVFLRYILSQADPGPLLFYLCSEVYQQTNPKDSRSLGKDIWNIFLEKNAPLRVKIPEMLQAEIDLRLRNNEDPRNVLCEAQEAVMLEIQEQINDYRSKRTLGLGSLYGENDLLGLDGDPLRERQMAEKQLAALGDILSKYEEDRSAPMDFAVNTFMSHAGIRLRESRSSCTAEKTQSAPDKDKWLPFFPKTKKQSSNSKKEKDALEDKKRNPILRYIGKPKSSSQSIKPGNVRNIIQHFENSHQYDVPEPGTQRLSTGSFPEDLLESDSSRSEIRLGRSGSLKGREEMKRSRKAENVPRPRSDVDMDAAAEAARLHQSASSSASSLSTRSLENPTPPFTPKMGRRSIESPNLGFCTDVILPHLLEDDLGQLSDLEPEPEVQNWQHTVGKDVVANLTQREIDRQEVINELFVTEASHLRTLRVLDLIFYQRMRKENLMPREELARLFPNLPELIEIHNSWCEAMKKLREEGPIIRDISDPMLARFDGPAREELQQVAAQFCSYQSVALELIRTKQRKESRFQLFMQEAESHPQCRRLQLRDLIVSEMQRLTKYPLLLENIIKHTEGGTSEHEKLCRARDQCREILKFVNEAVKQTENRHRLEGYQKRLDATALERASNPLAAEFKSLDLTTRKMIHEGPLTWRISKDKTLDLQVLLLEDLVVLLQRQEERLLLKCHSKTAVGSSDSKQTFSPVLKLNAVLIRSVATDKRAFFIICTSELGPPQIYELVALTSSDKNIWMELLEEAVQNATKHPGAAPIPIHPSPPGSQEPAYQGSTSSRVEINDSEVYHTEKEPKKLPEGPGPEQRVQDKQLIAQGEPVQEEDEEELRTLPRAPPSLDGENRGIRTRDPVLLALTGPLLMEGLADAALEDVENLRHLILWSLLPGHTVKTQAAGEPEDDLTPTPSVVSITSHPWDPGSPGQAPTISDSTRLARPEGSQPEGEDVAVSSLAHLPPRTRSSGVWDSPELDRNPAAEAASTEPAASYKVVRKVSLLPGGGVGAAKVAGSNAIPDSGQSESELSEVEGGAQATGNCFYVSMPAGPLDSSTEPTGTPPSPSQCHSLPAWPTEPQPYRGVRGGQCSSLVRRDVDVIFHTIEQLTIKLHRLKDMELAHRELLKSLGGESSGGTTPVGSFHTEAARWTDYSLSPPAKEALASDSQNGQEQGSCPEEGSDIALEDSATDTAVSPGP
notes: also called GTRAP48
B2: GST-EAAT4 fusion protein (full-length EAAT4 in pGEX-6P-1) (other, UniProt O35921 1-561, looked up)
chain: T1 sequence (looked up)
notes: mature; Made in BL21 cells, immobilized on glutathione-Sepharose-4B; not shown: glutathione S-transferase of vector pGEX-6P-1 (Pharmacia)
B3: GLT-1 glutamate transporter (other, rat, UniProt P31596 1-573, looked up)
chain: MASTEGANNMPKQVEVRMHDSHLSSEEPKHRNLGMRMCDKLGKNLLLSLTVFGVILGAVCGGLLRLAAPIHPDVVMLIAFPGDILMRMLKMLILPLIISSLITGLSGLDAKASGRLGTRAMVYYMSTTIIAAVLGVILVLAIHPGNPKLKKQLGPGKKNDEVSSLDAFLDLIRNLFPENLVQACFQQIQTVTKKVLVAPPSEEANTTKAVISLLNETMNEAPEETKIVIKKGLEFKDGMNVLGLIGFFIAFGIAMGKMGEQAKLMVEFFNILNEIVMKLVIMIMWYSPLGIACLICGKIIAIKDLEVVARQLGMYMITVIVGLIIHGGIFLPLIYFVVTRKNPFSFFAGIFQAWITALGTASSAGTLPVTFRCLEDNLGIDKRVTRFVLPVGATINMDGTALYEAVAAIFIAQMNGVILDGGQIVTVSLTATLASIGAASIPSAGLVTMLLILTAVGLPTEDISLLVAVDWLLDRMRTSVNVVGDSFGAGIVYHLSKSELDTIDSQHRMHEDIEMTKTQSVYDDTKNHRESNSNQCVYAAHNSVVIDECKVTLAANGKSADCSVEEEPWKREK
notes: whole, on cells; Native protein in solubilized rat brain
B4: GLAST glutamate transporter (other, rat, UniProt P24942 1-543, looked up)
chain: MTKSNGEEPRMGSRMERFQQGVRKRTLLAKKKVQNITKEDVKSYLFRNAFVLLTVSAVIVGTILGFALRPYKMSYREVKYFSFPGELLMRMLQMLVLPLIISSLVTGMAALDSKASGKMGMRAVVYYMTTTIIAVVIGIIIVIIIHPGKGTKENMYREGKIVQVTAADAFLDLIRNMFPPNLVEACFKQFKTSYEKRSFKVPIQANETLLGAVINNVSEAMETLTRIREEMVPVPGSVNGVNALGLVVFSMCFGFVIGNMKEQGQALREFFDSLNEAIMRLVAVIMWYAPLGILFLIAGKILEMEDMGVIGGQLAMYTVTVIVGLLIHAVIVLPLLYFLVTRKNPWVFIGGLLQALITALGTSSSSATLPITFKCLEENNGVDKRITRFVLPVGATINMDGTALYEALAAIFIAQVNNFDLNFGQIITISITATAASIGAAGIPQAGLVTMVIVLTSVGLPTDDITLIIAVDWFLDRLRTTTNVLGDSLGAGIVEHLSRHELKNRDVEMGNSVIEENEMKKPYQLIAQDNEPEKPVADSETKM
notes: as for B3
B5: EAAC1, full-length glutamate transporter (other, rat, UniProt P51907 1-523, looked up)
chain: MGKPTSSGCDWRRFLRNHWLLLSTVAAVVLGIVVGVLVRGHSELSNLDKFYFAFPGEILMRMLKLVILPLIISSMITGVAALDSNVSGKIGLRAVVYYFSTTVIAVILGIVLVVSIKPGVTQKVNEINRTGKTPEVSTVDAMLDLIRNMFPENLVQACFQQYKTKREEVKPASDPGGNQTEVSVTTAMTTMSENKTKEYKIVGLYSDGINVLGLIIFCLVFGLVIGKMGEKGQILVDFFNALSDATMKIVQIIMCYMPIGILFLIAGKIIEVEDWEIFRKLGLYMATVLSGLAIHSLVVLPLIYFIVVRKNPFRFALGMAQALLTALMISSSSATLPVTFRCAEEKNHVDKRITRFVLPVGATINMDGTALYEAVAAVFIAQLNGMDLSIGQIITISITATAASIGAAGVPQAGLVTMVIVLSAVGLPAEDVTLIIAVDWLLDRFRTMVNVLGDAFGTGIVEKLSKKELEQVDVSSEVNIVNPFALEPTILDNEDSDTKKSYVNGGFSVDKSDTISFTQTSQF
notes: whole, on cells; Used for native EAAC1 of rat brain and for EAAC1 expressed in HEK293, COS-7 and C6 glioma cells

Assays:
[1] = biological target: T2, GTRAP4-41 (glutamate transporter 4 associated protein), full-length (rat, UniProt Q9QWN8 2-2388); test: co-immunoprecipitation from solubilized rat brain
T2 construct: Used for native GTRAP4-41 of rat brain and for full-length GTRAP4-41 expressed where no tag is stated (transfected HEK cells, HSV amplicon); also called GTRAP41
Method: (§1) Immunoprecipitation from cerebellum lysate. Sprague-Dawley (SD) rat cerebellum was dissected, washed with 50 mM Tris-HCl (pH 7.5), 2 mM EDTA and 0.5 mM DTT, and homogenized on ice in buffer containing 20 mM Tris-HCl (pH 7.5), 10% sucrose, 1 mM EDTA, 0.1 mM PMSF, 0.3 mM aprotinin, 1 mM benamidine, 10 mg/ml leupeptine and 10 mg/ml pepstatine. Protein concentration was measured and adjusted to 2–3 mg/ml, and the homogenate was mixed in a 1:1 ratio with the solubilization buffer (homogenization buffer plus 2% Triton X-100). After 2 h, the lysate was spun at 10,000 g for 10 min. For each immunoprecipitation, […] of the Triton-lysate was incubated overnight at 4° C. with 5 μg of the anti-amino-terminal EAAT4 antibody. Immune complexes were precipitated with protein A Sepharose (Pharmacia), washed three times with 10 mM Tris-HCl (pH 7.5) and 5 mM EDTA, eluted with 3×SDS loading buffer, and processed for western blot analysis. The filters were probed with affinity purified rabbit antibodies against GTRAP4-41 and GTRAP4-48.
(§2) The GTRAP4-41 and GTRAP4-48 interaction with EAAT4 was then studied in vivo using solubilized brain preparations. GTRAP4-41 and GTRAP4-48 are co-immunoprecipitated with EAAT4 from brain by antibodies directed at the amino-terminus of EAAT4 but not by antibodies directed at the carboxy-terminus. However, since the site of interaction is within the carboxy-terminus of EAAT4, it is likely that the carboxy-terminal antibodies disrupt the protein-protein interaction. […] GTRAP4-48 is also not co-immunoprecipitated from brain with antibodies directed at GTRAP4-41.

[2] = biological target: T1, EAAT4, full-length glutamate transporter; test: cell-based or functional assay
[3] = biological target: T3, myc-tagged full-length GTRAP4-41 (rat, UniProt Q9QWN8 2-2388); test: in vitro binding assay, bead-linked GST-EAAT4 with solubilized HEK 293T extract
T3 construct: tested from solubilized cell extract; also called myc-tagged GTRAP4-41; not shown: myc tag of the myc-tagged pRK5 vector
Method: (§3) GTRAP4-41 and 4-48 Immunoprecipitation with Fusion Proteins. Full-length EAAT4 was subcloned into the EcoR I site of the GST-fusion vector pGEX-6P-1 (Pharmacia). Synthesis of recombinant proteins in BL21 cells (Novagen) was induced by 0.1 mM isopropyl b-D-thiogalactoside for 2 hrs at 30° C. and prepared as a crude bacterial lysate by mild sonication in ice-cold 1 C PBS and solubilization in 1% Triton X-100. Cell debris was removed by centrifugation at 7,000 g and the cleared bacterial lysate applied to glutathione-Sepharose-4B (Pharmacia). […] The cellular lysate was incubated with GST or GST-EAAT4 immobilized on glutathione-Sepharose-4B, and washed to remove non-specifically bound proteins. Specifically bound proteins were eluted with 3×SDS loading buffer and analyzed by immunoblotting using an anti-c-myc antibody. Bands were visualized by HRP-conjugated secondary antibodies and ECL chemiluminescence (Amersham).
(§4) The biochemical interaction between GTRAP4-41 or GTRAP4-48 and EAAT4 was confirmed using an in vitro binding assay. […] The solubilized cell extracts were then mixed with bead-linked GST-EAAT4 or GST alone and the bound proteins were eluted. GTRAP4-41 and GTRAP4-48 were specifically retained by the GST-EAAT4 fusion protein, but not by GST alone.

[4] = biological target: T4, myc-tagged full-length GTRAP4-48 (rat, UniProt Q9ES67 1-1527); test: as above
T4 construct: tested from solubilized cell extract; also called myc-tagged GTRAP4-48; not shown: myc tag of the myc-tagged pRK5 vector
Method: as §3, §4

[5] = biological target: B1; test: co-immunoprecipitation from solubilized rat brain
Method: as §1, §2

T2 sequence (Q9QWN8 other isoform, or with tags, fused parts or gaps limits assumed): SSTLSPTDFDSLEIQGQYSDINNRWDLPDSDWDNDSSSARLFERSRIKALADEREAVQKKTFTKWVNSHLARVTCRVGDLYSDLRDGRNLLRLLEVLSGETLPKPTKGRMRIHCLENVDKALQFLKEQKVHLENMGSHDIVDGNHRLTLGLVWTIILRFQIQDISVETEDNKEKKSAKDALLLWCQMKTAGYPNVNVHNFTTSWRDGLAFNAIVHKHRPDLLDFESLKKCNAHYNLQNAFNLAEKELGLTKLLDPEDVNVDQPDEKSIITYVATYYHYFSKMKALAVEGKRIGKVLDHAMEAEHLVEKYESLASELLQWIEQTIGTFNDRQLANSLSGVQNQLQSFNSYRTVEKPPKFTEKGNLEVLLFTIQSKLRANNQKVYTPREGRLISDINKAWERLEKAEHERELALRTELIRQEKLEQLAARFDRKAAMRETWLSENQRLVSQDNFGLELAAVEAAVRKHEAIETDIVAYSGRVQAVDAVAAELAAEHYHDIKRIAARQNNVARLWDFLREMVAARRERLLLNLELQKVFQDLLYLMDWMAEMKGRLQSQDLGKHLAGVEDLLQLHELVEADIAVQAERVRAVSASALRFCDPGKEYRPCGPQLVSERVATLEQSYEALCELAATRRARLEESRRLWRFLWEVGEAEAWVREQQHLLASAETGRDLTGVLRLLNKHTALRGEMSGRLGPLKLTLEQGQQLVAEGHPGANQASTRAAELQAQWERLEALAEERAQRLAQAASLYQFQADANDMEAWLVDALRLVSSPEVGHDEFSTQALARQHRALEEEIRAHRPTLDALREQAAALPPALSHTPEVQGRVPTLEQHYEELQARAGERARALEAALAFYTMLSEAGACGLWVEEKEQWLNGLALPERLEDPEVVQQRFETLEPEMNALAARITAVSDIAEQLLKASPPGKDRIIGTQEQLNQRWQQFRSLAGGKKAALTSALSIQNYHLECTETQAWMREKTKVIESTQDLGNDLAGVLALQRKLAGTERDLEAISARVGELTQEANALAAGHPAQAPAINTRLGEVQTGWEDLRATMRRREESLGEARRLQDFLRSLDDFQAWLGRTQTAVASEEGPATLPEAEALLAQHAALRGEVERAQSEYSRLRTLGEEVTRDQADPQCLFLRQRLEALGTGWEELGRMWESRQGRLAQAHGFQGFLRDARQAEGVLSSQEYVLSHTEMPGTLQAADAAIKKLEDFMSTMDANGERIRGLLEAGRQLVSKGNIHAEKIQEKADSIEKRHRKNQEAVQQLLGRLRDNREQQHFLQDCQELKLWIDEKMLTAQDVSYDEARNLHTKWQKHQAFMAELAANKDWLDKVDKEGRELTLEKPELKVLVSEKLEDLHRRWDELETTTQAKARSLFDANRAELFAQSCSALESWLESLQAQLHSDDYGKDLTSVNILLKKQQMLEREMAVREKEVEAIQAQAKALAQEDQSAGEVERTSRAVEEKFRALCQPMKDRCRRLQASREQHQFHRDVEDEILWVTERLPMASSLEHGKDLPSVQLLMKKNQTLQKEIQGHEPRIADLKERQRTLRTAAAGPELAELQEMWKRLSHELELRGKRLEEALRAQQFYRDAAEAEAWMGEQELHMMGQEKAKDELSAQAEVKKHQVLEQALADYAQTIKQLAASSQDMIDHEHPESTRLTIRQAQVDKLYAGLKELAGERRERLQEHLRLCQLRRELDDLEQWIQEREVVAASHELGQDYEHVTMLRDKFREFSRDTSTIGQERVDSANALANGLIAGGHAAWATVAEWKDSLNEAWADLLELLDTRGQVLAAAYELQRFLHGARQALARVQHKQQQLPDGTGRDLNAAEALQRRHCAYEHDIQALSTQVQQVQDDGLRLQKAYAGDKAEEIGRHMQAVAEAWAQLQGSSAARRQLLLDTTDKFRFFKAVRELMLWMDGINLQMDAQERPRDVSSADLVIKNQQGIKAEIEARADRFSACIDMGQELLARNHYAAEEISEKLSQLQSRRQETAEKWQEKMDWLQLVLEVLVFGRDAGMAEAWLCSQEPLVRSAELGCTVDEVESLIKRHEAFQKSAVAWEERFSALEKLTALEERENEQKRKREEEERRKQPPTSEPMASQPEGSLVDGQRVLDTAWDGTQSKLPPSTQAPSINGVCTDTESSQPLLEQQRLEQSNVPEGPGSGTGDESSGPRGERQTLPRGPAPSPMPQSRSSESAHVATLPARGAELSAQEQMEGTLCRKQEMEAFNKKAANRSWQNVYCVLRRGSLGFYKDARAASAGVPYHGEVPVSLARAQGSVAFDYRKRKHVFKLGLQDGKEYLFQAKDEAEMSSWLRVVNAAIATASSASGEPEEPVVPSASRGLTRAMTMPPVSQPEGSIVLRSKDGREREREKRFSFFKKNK
T3 sequence (Q9QWN8 other isoform, or with tags, fused parts or gaps): as the sequence (Q9QWN8 other isoform, or with tags, fused parts or gaps limits assumed) above

| Binder | binding result [1] | Na+-dependent glutamate transport in HEK-rEAAT4 cells [2] | binding result [3] | binding result [4] | binding result [5] |
| --- | --- | --- | --- | --- | --- |
| B1 | no binding | 4 fold |  |  |  |
| B2 |  |  | binds | binds |  |
| B3 | no binding |  |  |  | no binding |
| B4 | no binding |  |  |  | no binding |
| B5 | no binding |  |  |  | no binding |
